Assay results as given in US20260242735A1 (UNIVERSIT T BASEL, published 2026).

How the values were obtained:
Experiment in all cases: alanine scan, flow cytometry, HEK293-T;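 note: antibody binding to each alanine-substituted CD33 mutant expressed transiently in HEK293-T, read as fluorescence minus background, mean of duplicates, relative to wild-type CD33 set as 100%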
human CD33 Q83A = human CD33 Q83A (human, UniProt P20138 18-364)
human CD33 N76A = human CD33 N76A (human, UniProt P20138 18-364)
Sequence of human CD33 N76A (P20138 18-364 N76A limits assumed): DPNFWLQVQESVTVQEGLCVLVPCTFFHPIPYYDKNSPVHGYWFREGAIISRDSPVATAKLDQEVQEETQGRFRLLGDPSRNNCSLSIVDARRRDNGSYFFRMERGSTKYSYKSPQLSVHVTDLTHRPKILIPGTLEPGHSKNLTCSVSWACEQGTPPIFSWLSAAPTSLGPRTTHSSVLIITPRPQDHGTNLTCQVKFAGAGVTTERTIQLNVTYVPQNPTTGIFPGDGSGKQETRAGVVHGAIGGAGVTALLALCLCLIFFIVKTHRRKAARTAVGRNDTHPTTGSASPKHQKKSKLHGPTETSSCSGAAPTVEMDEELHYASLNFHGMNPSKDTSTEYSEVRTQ

human CD33 G88A = human CD33 G88A (human, UniProt P20138 18-364)
Sequence of human CD33 G88A (P20138 18-364 G88A limits assumed): as the sequence (P20138 18-364 N76A limits assumed) above, with A59N, G71A counted along it

human CD33 E81A = human CD33 E81A (human, UniProt P20138 18-364)
Sequence of human CD33 E81A (P20138 18-364 E81A limits assumed): as the sequence (P20138 18-364 N76A limits assumed) above, with A59N, E64A counted along it

human CD33 S104A = human CD33 S104A (human, UniProt P20138 18-364)
Sequence of human CD33 S104A (P20138 18-364 S104A limits assumed): as the sequence (P20138 18-364 N76A limits assumed) above, with A59N, S87A counted along it

human CD33 S97A = human CD33 S97A (human, UniProt P20138 18-364)
Sequence of human CD33 S97A (P20138 18-364 S97A limits assumed): as the sequence (P20138 18-364 N76A limits assumed) above, with A59N, S80A counted along it

human CD33 A65S = human CD33 A65S (human, UniProt P20138 18-364)
Sequence of human CD33 A65S (P20138 18-364 A65S limits assumed): as the sequence (P20138 18-364 N76A limits assumed) above, with A48S, A59N counted along it

human CD33 E63A = human CD33 E63A (human, UniProt P20138 18-364)
Sequence of human CD33 E63A (P20138 18-364 E63A limits assumed): as the sequence (P20138 18-364 N76A limits assumed) above, with E46A, A59N counted along it

human CD33 N113A = human CD33 N113A (human, UniProt P20138 18-364)
Sequence of human CD33 N113A (P20138 18-364 N113A limits assumed): as the sequence (P20138 18-364 N76A limits assumed) above, with A59N, N96A counted along it

human CD33 P55A = human CD33 P55A (human, UniProt P20138 18-364)
Sequence of human CD33 P55A (P20138 18-364 P55A limits assumed): as the sequence (P20138 18-364 N76A limits assumed) above, with P38A, A59N counted along it

human CD33 G64A = human CD33 G64A (human, UniProt P20138 18-364)
Sequence of human CD33 G64A (P20138 18-364 G64A limits assumed): as the sequence (P20138 18-364 N76A limits assumed) above, with G47A, A59N counted along it

human CD33 P96A = human CD33 P96A (human, UniProt P20138 18-364)
Sequence of human CD33 P96A (P20138 18-364 P96A limits assumed): as the sequence (P20138 18-364 N76A limits assumed) above, with A59N, P79A counted along it

human CD33 T75A = human CD33 T75A (human, UniProt P20138 18-364)
Sequence of human CD33 T75A (P20138 18-364 T75A limits assumed): as the sequence (P20138 18-364 N76A limits assumed) above, with T58A, A59N counted along it

human CD33 C101A = human CD33 C101A (human, UniProt P20138 18-364)
Sequence of human CD33 C101A (P20138 18-364 C101A limits assumed): as the sequence (P20138 18-364 N76A limits assumed) above, with A59N, C84A counted along it

human CD33 T86A = human CD33 T86A (human, UniProt P20138 18-364)
Sequence of human CD33 T86A (P20138 18-364 T86A limits assumed): as the sequence (P20138 18-364 N76A limits assumed) above, with A59N, T69A counted along it

human CD33 V106A = human CD33 V106A (human, UniProt P20138 18-364)
Sequence of human CD33 V106A (P20138 18-364 V106A limits assumed): as the sequence (P20138 18-364 N76A limits assumed) above, with A59N, V89A counted along it

human CD33 R62A = human CD33 R62A (human, UniProt P20138 18-364)
Sequence of human CD33 R62A (P20138 18-364 R62A limits assumed): as the sequence (P20138 18-364 N76A limits assumed) above, with R45A, A59N counted along it

human CD33 S68A = human CD33 S68A (human, UniProt P20138 18-364)
Sequence of human CD33 S68A (P20138 18-364 S68A limits assumed): as the sequence (P20138 18-364 N76A limits assumed) above, with S51A, A59N counted along it

human CD33 N99A = human CD33 N99A (human, UniProt P20138 18-364)
Sequence of human CD33 N99A (P20138 18-364 N99A limits assumed): as the sequence (P20138 18-364 N76A limits assumed) above, with A59N, N82A counted along it

human CD33 Y50A = human CD33 Y50A (human, UniProt P20138 18-364)
Sequence of human CD33 Y50A (P20138 18-364 Y50A limits assumed): as the sequence (P20138 18-364 N76A limits assumed) above, with Y33A, A59N counted along it

human CD33 R110A = human CD33 R110A (human, UniProt P20138 18-364)
Sequence of human CD33 R110A (P20138 18-364 R110A limits assumed): as the sequence (P20138 18-364 N76A limits assumed) above, with A59N, R93A counted along it

human CD33 P150A = target: T1, human CD33 P150A (human, UniProt P20138 18-364)
T1 construct: alanine scan clone, transfected HEK293-T
T1 sequence (P20138 18-364 P150A limits assumed): as the sequence (P20138 18-364 N76A limits assumed) above, with A59N, P133A counted along it

human CD33 K146A = target: T2, human CD33 K146A (human, UniProt P20138 18-364)
T2 construct: alanine scan clone, transfected HEK293-T
T2 sequence (P20138 18-364 K146A limits assumed): as the sequence (P20138 18-364 N76A limits assumed) above, with A59N, K129A counted along it

human CD33 H143A = target: T3, human CD33 H143A (human, UniProt P20138 18-364)
T3 construct: alanine scan clone, transfected HEK293-T
T3 sequence (P20138 18-364 H143A limits assumed): as the sequence (P20138 18-364 N76A limits assumed) above, with A59N, H126A counted along it

human CD33 T192A = target: T4, human CD33 T192A (human, UniProt P20138 18-364)
T4 construct: alanine scan clone, transfected HEK293-T
T4 sequence (P20138 18-364 T192A limits assumed): as the sequence (P20138 18-364 N76A limits assumed) above, with A59N, T175A counted along it

human CD33 F177A = target: T5, human CD33 F177A (human, UniProt P20138 18-364)
T5 construct: alanine scan clone, transfected HEK293-T
T5 sequence (P20138 18-364 F177A limits assumed): as the sequence (P20138 18-364 N76A limits assumed) above, with A59N, F160A counted along it

human CD33 V165A = target: T6, human CD33 V165A (human, UniProt P20138 18-364)
T6 construct: alanine scan clone, transfected HEK293-T
T6 sequence (P20138 18-364 V165A limits assumed): as the sequence (P20138 18-364 N76A limits assumed) above, with A59N, V148A counted along it

human CD33 Y127A = target: T7, human CD33 Y127A (human, UniProt P20138 18-364)
T7 construct: alanine scan clone, transfected HEK293-T
T7 sequence (P20138 18-364 Y127A limits assumed): as the sequence (P20138 18-364 N76A limits assumed) above, with A59N, Y110A counted along it

human CD33 D140A = target: T8, human CD33 D140A (human, UniProt P20138 18-364)
T8 construct: alanine scan clone, transfected HEK293-T
T8 sequence (P20138 18-364 D140A limits assumed): as the sequence (P20138 18-364 N76A limits assumed) above, with A59N, D123A counted along it

human CD33 E121A = target: T9, human CD33 E121A (human, UniProt P20138 18-364)
T9 construct: alanine scan clone, transfected HEK293-T
T9 sequence (P20138 18-364 E121A limits assumed): as the sequence (P20138 18-364 N76A limits assumed) above, with A59N, E104A counted along it

human CD33 H157A = target: T10, human CD33 H157A (human, UniProt P20138 18-364)
T10 construct: alanine scan clone, transfected HEK293-T
T10 sequence (P20138 18-364 H157A limits assumed): as the sequence (P20138 18-364 N76A limits assumed) above, with A59N, H140A counted along it

human CD33 L161A = target: T11, human CD33 L161A (human, UniProt P20138 18-364)
T11 construct: alanine scan clone, transfected HEK293-T
T11 sequence (P20138 18-364 L161A limits assumed): as the sequence (P20138 18-364 N76A limits assumed) above, with A59N, L144A counted along it

human CD33 L153A = target: T12, human CD33 L153A (human, UniProt P20138 18-364)
T12 construct: alanine scan clone, transfected HEK293-T
T12 sequence (P20138 18-364 L153A limits assumed): as the sequence (P20138 18-364 N76A limits assumed) above, with A59N, L136A counted along it

human CD33 L180A = target: T13, human CD33 L180A (human, UniProt P20138 18-364)
T13 construct: alanine scan clone, transfected HEK293-T
T13 sequence (P20138 18-364 L180A limits assumed): as the sequence (P20138 18-364 N76A limits assumed) above, with A59N, L163A counted along it

human CD33 P175A = target: T14, human CD33 P175A (human, UniProt P20138 18-364)
T14 construct: alanine scan clone, transfected HEK293-T
T14 sequence (P20138 18-364 P175A limits assumed): as the sequence (P20138 18-364 N76A limits assumed) above, with A59N, P158A counted along it

human CD33 S164A = target: T15, human CD33 S164A (human, UniProt P20138 18-364)
T15 construct: alanine scan clone, transfected HEK293-T
T15 sequence (P20138 18-364 S164A limits assumed): as the sequence (P20138 18-364 N76A limits assumed) above, with A59N, S147A counted along it

Sequence of human CD33 Q83A (P20138 18-364 Q83A limits assumed): as the sequence (P20138 18-364 N76A limits assumed) above, with A59N, Q66A counted along it

Binder	Mean % WT Binding (human CD33 Q83A)	Mean % WT Binding (human CD33 N76A)	Mean % WT Binding (human CD33 G88A)	Mean % WT Binding (human CD33 E81A)	Mean % WT Binding (human CD33 S104A)	Mean % WT Binding (human CD33 S97A)	Mean % WT Binding (human CD33 A65S)	Mean % WT Binding (human CD33 E63A)	Mean % WT Binding (human CD33 N113A)	Mean % WT Binding (human CD33 P55A)	Mean % WT Binding (human CD33 G64A)	Mean % WT Binding (human CD33 P96A)	Mean % WT Binding (human CD33 T75A)	Mean % WT Binding (human CD33 C101A)	Mean % WT Binding (human CD33 T86A)	Mean % WT Binding (human CD33 V106A)	Mean % WT Binding (human CD33 R62A)	Mean % WT Binding (human CD33 S68A)	Mean % WT Binding (human CD33 N99A)	Mean % WT Binding (human CD33 Y50A)	further results
Refmab #6 (antibody, V domains shown, Full-length format is human IgG1 Fc silent (PG-LALA); also made as Fab; The alanine scan used IgG or Fab) VH: QVQLQQPGAEVVKPGASVKMSCKASGYTFTSYYIHWIKQTPGQGLEWVGVIYPGNDDISYNQKFQGKATLTADKSSTTAYMQLSSLTSEDSAVYYCAREVRLRYFDVWGQGTTVTVSS VL: EIVLTQSPGSLAVSPGERVTMSCKSSQSVFFSSSQKNYLAWYQQIPGQSPRLLIYWASTRESGVPDRFTGSGSGTDFTLTISSVQPEDLAIYYCHQYLSSRTFGQGTKLEIK	108 % WT binding	86.8 % WT binding	105 % WT binding	88.1 % WT binding	90.9 % WT binding	93.7 % WT binding	92.3 % WT binding	90.9 % WT binding	89.7 % WT binding	101 % WT binding	92.9 % WT binding	92.3 % WT binding	102 % WT binding	6.2 % WT binding	80.1 % WT binding	125 % WT binding	106 % WT binding	86.4 % WT binding	92 % WT binding	113 % WT binding	Mean % WT Binding (human CD33 R110A): 98.4 % WT binding
Refmab #6 (antibody, V domains shown, The alanine scan used IgG or Fab) VH: QVQLQQPGAEVVKPGASVKMSCKASGYTFTSYYIHWIKQTPGQGLEWVGVIYPGNDDISYNQKFQGKATLTADKSSTTAYMQLSSLTSEDSAVYYCAREVRLRYFDVWGQGTTVTVSS VL: EIVLTQSPGSLAVSPGERVTMSCKSSQSVFFSSSQKNYLAWYQQIPGQSPRLLIYWASTRESGVPDRFTGSGSGTDFTLTISSVQPEDLAIYYCHQYLSSRTFGQGTKLEIK	–	–	–	–	–	–	–	–	–	–	–	–	–	–	–	–	–	–	–	–	Mean % WT Binding (human CD33 P150A): 106 % WT binding; Mean % WT Binding (human CD33 K146A): 116 % WT binding; Mean % WT Binding (human CD33 H143A): 97.5 % WT binding; Mean % WT Binding (human CD33 T192A): 99 % WT binding; Mean % WT Binding (human CD33 F177A): 48.7 % WT binding; Mean % WT Binding (human CD33 V165A): 101 % WT binding; Mean % WT Binding (human CD33 Y127A): 42 % WT binding; Mean % WT Binding (human CD33 D140A): 104 % WT binding; Mean % WT Binding (human CD33 E121A): 90.8 % WT binding; Mean % WT Binding (human CD33 H157A): 96.3 % WT binding; Mean % WT Binding (human CD33 L161A): 100 % WT binding; Mean % WT Binding (human CD33 L153A): 94.3 % WT binding; Mean % WT Binding (human CD33 L180A): 97.1 % WT binding; Mean % WT Binding (human CD33 P175A): 98.6 % WT binding; Mean % WT Binding (human CD33 S164A): 100 % WT binding
Refmab #5 (antibody, V domains shown, Full-length format is human IgG1 Fc silent (PG-LALA); also made as Fab; The alanine scan used IgG or Fab) VH: QVQLVQSGAEVKKPGASVKVSCKASGYTFTNYDINWVRQAPGQGLEWIGWIYPGDGSTKYNEKFKAKATLTADTSTSTAYMELRSLRSDDTAVYYCASGYEDAMDYWGQGTTVTVSS VL: DIQMTQSPSSLSASVGDRVTINCKASQDINSYLSWFQQKPGKAPKTLIYRANRLVDGVPSRFSGSGSGQDYTLTISSLQPEDFATYYCLQYDEFPLTFGGGTKVEIK	97 % WT binding	124 % WT binding	118 % WT binding	140 % WT binding	109 % WT binding	126 % WT binding	175 % WT binding	140 % WT binding	64 % WT binding	118 % WT binding	136 % WT binding	114 % WT binding	120 % WT binding	23 % WT binding	124 % WT binding	106 % WT binding	123 % WT binding	142 % WT binding	88.4 % WT binding	55.7 % WT binding	Mean % WT Binding (human CD33 R110A): 125 % WT binding
Refmab #5 (antibody, V domains shown, The alanine scan used IgG or Fab) VH: QVQLVQSGAEVKKPGASVKVSCKASGYTFTNYDINWVRQAPGQGLEWIGWIYPGDGSTKYNEKFKAKATLTADTSTSTAYMELRSLRSDDTAVYYCASGYEDAMDYWGQGTTVTVSS VL: DIQMTQSPSSLSASVGDRVTINCKASQDINSYLSWFQQKPGKAPKTLIYRANRLVDGVPSRFSGSGSGQDYTLTISSLQPEDFATYYCLQYDEFPLTFGGGTKVEIK	–	–	–	–	–	–	–	–	–	–	–	–	–	–	–	–	–	–	–	–	Mean % WT Binding (human CD33 P150A): 132 % WT binding; Mean % WT Binding (human CD33 K146A): 149 % WT binding; Mean % WT Binding (human CD33 H143A): 128 % WT binding; Mean % WT Binding (human CD33 T192A): 109 % WT binding; Mean % WT Binding (human CD33 F177A): 57.3 % WT binding; Mean % WT Binding (human CD33 V165A): 174 % WT binding; Mean % WT Binding (human CD33 Y127A): 199 % WT binding; Mean % WT Binding (human CD33 D140A): 118 % WT binding; Mean % WT Binding (human CD33 E121A): 105 % WT binding; Mean % WT Binding (human CD33 H157A): 102 % WT binding; Mean % WT Binding (human CD33 L161A): 130 % WT binding; Mean % WT Binding (human CD33 L153A): 101 % WT binding; Mean % WT Binding (human CD33 L180A): 118 % WT binding; Mean % WT Binding (human CD33 P175A): 130 % WT binding; Mean % WT Binding (human CD33 S164A): 110 % WT binding
